Experiment [1] addresses T1, human 5T4 on cells (human, UniProt Q13641 32-420).
T1 construct: also called TPBG; hu5T4
T1 sequence: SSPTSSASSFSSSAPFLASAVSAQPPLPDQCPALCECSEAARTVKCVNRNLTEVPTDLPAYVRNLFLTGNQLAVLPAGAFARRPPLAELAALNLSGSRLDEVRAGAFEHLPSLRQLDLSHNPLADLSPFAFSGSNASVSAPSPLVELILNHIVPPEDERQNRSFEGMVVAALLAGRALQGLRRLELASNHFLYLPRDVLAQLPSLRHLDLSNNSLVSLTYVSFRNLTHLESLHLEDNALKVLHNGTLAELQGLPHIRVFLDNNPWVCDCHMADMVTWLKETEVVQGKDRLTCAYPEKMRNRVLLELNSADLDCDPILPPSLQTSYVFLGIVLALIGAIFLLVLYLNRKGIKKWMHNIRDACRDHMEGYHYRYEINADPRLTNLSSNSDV
Put plainly: flow cytometry, CHO-K1 cells expressing human 5T4, labelled anti-human IgG secondary, MFI (mean). How it is done: (§1) Binding studies were performed by standard flow cytometry-based staining procedures two cell lines expressing 5T4:CHO-K1 cells (obtained from Alligator) transduced with human or cynomolgus macaque 5T4 and SKOV-3 human ovarian adenocarcinoma cells which express (human) 5T4. All labeling and washes were performed in U-bottom 96-well plates in saline buffer with 0.1% BSA and 2 mM EDTA. Cell were plated at approximately 100,000 cells per well and incubated with a range of 100 nM to 0.05 nM concentrations of test molecules in […], for 30 minutes on ice. Cells were washed three times then incubated for another 30 min on ice with fluorescently-labeled secondary polyclonal antibody, F(ab′)² goat anti-human IgG (Jackson ImmunoResearch Laboratories). The cells were then washed twice and the samples acquired in a BD LSRII or a Symphony A3 flow cytometer. The sample files were analyzed using FlowJo software; the mean fluorescence intensity (MFI-mean) or median fluorescence intensity (MFI-median) of the live population of cells in each well was calculated after gating on live cells (forward vs side scatter). Nonlinear regression analysis to determine EC₅₀ values was performed in GraphPad Prism 6® graphing and statistics software.
Background: A flow cytometer gives signals particle by particle.

In experiment [2] the target is T1, human 5T4 on cells. Put plainly: flow cytometry, SKOV-3 cells (endogenous human 5T4), labelled anti-human IgG secondary, MFI (mean). The protocol: as §1
For another experiment, the target named is T2, FcγRIIb (CD32b) (UniProt P31994 43-310, limits assumed).
T2 construct: whole, on cells
T2 sequence (looked up): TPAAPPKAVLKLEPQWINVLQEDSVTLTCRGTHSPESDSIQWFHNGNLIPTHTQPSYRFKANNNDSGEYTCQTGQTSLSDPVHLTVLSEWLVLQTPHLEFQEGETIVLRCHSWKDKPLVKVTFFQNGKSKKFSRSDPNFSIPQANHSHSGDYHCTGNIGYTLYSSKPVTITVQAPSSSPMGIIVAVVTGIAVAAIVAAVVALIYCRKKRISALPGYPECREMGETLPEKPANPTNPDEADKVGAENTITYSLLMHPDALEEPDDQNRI
Put plainly: flow cytometry, CHO cells stably expressing CD32b, fluorescent anti-human IgG secondary, MFI (mean). The text has this: (§2) ALG.APV-210 contains mutations introduced to prevent interaction with Fcγ receptors (FcγR) that could lead to FcγR-mediated T-cell activation or ADCC, ADCP, CDC etc. Binding of ALG.APV-210 was therefore tested on CHO cell transfectants stably expressing the following FcγR: FcγRI (CD64), FcγRIIa (CD32a His131), FcγRIIb (CD32b), FcγRIIIa (CD16a Val158 and CD16a Phe158), and FcγRIIIb (CD16b). Untransfected CHO cells were used as negative control. A control human IgG1 molecule was used as a positive control. Different concentrations of ALG.APV-210 or control IgG1 were incubated with the FcγR-expressing cell lines, washed, and labeled with a secondary anti-human IgG reagent. Binding of ALG.APV-210 and the control IgG1 was detected by flow cytometry.

The target of a further experiment is T3, FcγRIIIa (CD16a Phe158) (UniProt P08637 17-254, limits assumed).
T3 construct: whole, on cells; allotype Phe158 as printed
T3 sequence (P08637 17-254 limits assumed): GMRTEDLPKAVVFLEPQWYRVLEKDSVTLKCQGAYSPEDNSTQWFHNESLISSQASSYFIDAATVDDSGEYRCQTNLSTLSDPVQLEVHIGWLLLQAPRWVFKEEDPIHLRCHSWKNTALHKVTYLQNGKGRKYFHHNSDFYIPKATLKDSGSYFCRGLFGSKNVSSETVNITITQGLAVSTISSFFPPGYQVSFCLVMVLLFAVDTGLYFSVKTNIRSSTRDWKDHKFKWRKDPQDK
Put plainly: flow cytometry, CHO cells stably expressing CD16a Phe158, fluorescent anti-human IgG secondary, MFI (mean).
Excerpt: as §2

The target of a further experiment is T4, human CD137 on cells (human, UniProt Q07011 24-255).
T4 construct: also called 4-1BB; TNFRSF9 (CHO-K1/human CD137 cells)
T4 sequence (Q07011 24-255 limits assumed): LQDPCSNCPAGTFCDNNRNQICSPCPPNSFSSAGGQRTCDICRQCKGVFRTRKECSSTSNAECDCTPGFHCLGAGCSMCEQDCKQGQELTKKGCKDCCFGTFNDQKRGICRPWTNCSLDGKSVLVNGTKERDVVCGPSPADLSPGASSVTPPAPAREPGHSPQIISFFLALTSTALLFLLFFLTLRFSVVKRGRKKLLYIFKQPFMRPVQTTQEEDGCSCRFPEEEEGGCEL
Put plainly: flow cytometry, MFI of the CD137 positive cells; human CD8 T cells, MFI of CD137 positive cells. How it is done: Following 48 h of incubation with or without CD3, human and cynomolgus PBMC were harvested, pooled, recounted and diluted in FACS buffer (PBS+0.5% BSA, 0.05% NaN₃) to a concentration of 5×10⁶ cells/mL. 50 μL (0.25×10⁶ cells) of cell solution was added to a 96-well FACS staining plate (Falcon #351190). Following 10 min of Fc-blocking in RT using Beriglobin (hIgG, 200 μg/mL), cells were washed in FACS buffer and then incubated for 1 h in 4° C. with 100 μL of the biotinylated ALG.APV-210 or negative control. The antibodies were added in a serial dilution starting either at 5 μg/mL titrating down in a 12 step ⅓ dilution down to […] (exp 1) or 1 μg/mL titrating down in a 12 step ½ dilution down to 0.0005 μg/mL (exp 2). […] Cells were analysed for ALG.APV-210 binding using flow cytometry by gating on viable, single cells expressing CD3 and CD8. MFI values (FMO subtracted) from 2 independent experiments as well as normalized pooled data from 2 experiments and EC₅₀-values were determined and plotted using GraphPad Prism 7, non-linear regression log (agonist) vs. normalized response—variable slope, n=6 donors/group.

As usually defined, the EC50 is the midpoint of the concentration-response curve. The low end stands for greater potency, the high end for weaker potency.

B1: ALG.APV-187 (bispecific antibody)
chain: EVQLLESGGGLVQPGGSLRLSCAASGFTFSHGSMYWVRQAPGKGLEWVSSISSGSGSTYYADSVKGRFTISHDNSKNTLYLQMNSLRAEDTAVYYCARSSYYGSYYSIDYWGQGTLVTVSSGGGGSGGGGSGGGGSGGGGSDIQMTQSPSSLSASVGDRVTITCRASQSISSYLNWYQQKPGKAPKLLIYAASSLQSGVPSRFSGSGSGTDFTLTISSLQPEDFATYYCQQYYDNLPTFGQGTKLEIKSSEPKSSDKTHTCPPCPAPEAAGAPSVFLFPPKPKDTLMISRTPEVTCVVVDVSHEDPEVKFNWYVDGVEVHNAKTKPREEQYNSTYRVVSVLTVLHQDWLNGKEYKCAVSNKALPAPIEKTISKAKGQPREPQVYTLPPSRDELTKNQVSLTCLVKGFYPSDIAVEWESNGQPENNYKTTPPVLDSDGSFFLYSKLTVDKSRWQQGNVFSCSVMHEALHNHYTQKSLSLSPGSGGGGSGGGGSGGGGSPSEVQLLESGGGLVQPGGSLRLSCAASGFTFSSYAMSWVRQAPGKCLEWVSAISGSGGSTYYADSVKGRFTISRDNSKNTLYLQMNSLRAEDTAVYYCARYYGGYYSAWMDYWGQGTLVTVSSGGGGSGGGGSGGGGSGGGGSDIQMTQSPSSLSASVGDRVTITCRASQSISSFLNWYQQKPGKAPKLLIYAASSLQSGVPSRFSGSGSGTDFTLTISSLQPEDSATYYCQQTYGYLHTFGCGTKLEIKR
notes: Optimized ADAPTIR scFv-Fc-scFv homodimer with stabilizing disulfide in the 1210 scFv
As to B1, in the experiment with human 5T4 on cells [1], the concentration giving a half-maximal response (EC50) turned out to be 5.6 nM and the “Maximum MFI” value came out at 13500. For the same molecule, in the experiment with human 5T4 on cells [2], a half-maximal response (EC50) required 9.2 nM and the “Maximum MFI” value stood at 1800.

B2: ALG.APV-210 (bispecific antibody)
chain: EVQLLESGGGLVQPGGSLRLSCAASGFTFSHGSMYWVRQAPGKGLEWVSSISSGSGSTYYADSVKGRFTISHDNSKNTLYLQMNSLRAEDTAVYYCARSSYYGSYYSIDYWGQGTLVTVSSGGGGSGGGGSGGGGSGGGGSDIQMTQSPSSLSASVGDRVTITCRASQSISSYLNWYQQKPGKAPKLLIYAASSLQSGVPSRFSGSGSGTDFTLTISSLQPEDFATYYCQQYYDNLPTFGQGTKLEIKEPKSSDKTHTCPPCPAPEAAGAPSVFLFPPKPKDTLMISRTPEVTCVVVDVSHEDPEVKFNWYVDGVEVHNAKTKPREEQYNSTYRVVSVLTVLHQDWLNGKEYKCAVSNKALPAPIEKTISKAKGQPREPQVYTLPPSRDELTKNQVSLTCLVKGFYPSDIAVEWESNGQPENNYKTTPPVLDSDGSFFLYSKLTVDKSRWQQGNVFSCSVMHEALHNHYTQKSLSLSPGSGGGGSGGGGSGGGGSPSEVQLLESGGGLVQPGGSLRLSCAASGFTFSSYAMSWVRQAPGKCLEWVSAISGSGGSTYYADSVKGRFTISRDNSKNTLYLQMNSLRAEDTAVYYCARYYGGYYSAWMDYWGQGTLVTVSSGGGGSGGGGSGGGGSGGGGSDIQMTQSPSSLSASVGDRVTITCRASQSISSFLNWYQQKPGKAPKLLIYAASSLQSGVPSRFSGSGSGTDFTLTISSLQPEDSATYYCQQTYGYLHTFGCGTKLEIKR
notes: Optimized ADAPTIR scFv-Fc-scFv homodimer with stabilizing disulfide in the 1210 scFv; also called 5T4-CD137 bispecific antibody
Turning to B2, the binding result with FcγRIIb (CD32b) and in the experiment with FcγRIIIa (CD16a Phe158) was “no binding (tested: 1000 nM)” in each case.

B3: biotinylated ALG.APV-210 (bispecific antibody)
chain: B2 chain
notes: also called ALG.APV-210 (biotinylated for FACS detection)
With B3, in the experiment with human CD137 on cells, the EC50 is 0.17 nM.
